Results on 96 substances are retold here after the supplement of paper PMC12042874.

± gives the uncertainty stated by the source.

A short description of this series: amyloid nucleation score (Sup35N fusion, yeast selection) (log enrichment); library NNK3; higher = more nucleation; inactive = no reads after selection. A digest of the protocol: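 The nucleation score is the DiMSum log enrichment of output over input reads, centred on the mode score of non-aggregating sequences. Only sequences with 100 or more input reads were scored, using Illumina sequencing of input and output plasmid inserts. Psi-negative yeast expressing Sup35N fused to peptides of 20 random codons were induced 24 hours with 100 μM copper sulfate and grown 7 days at 30°C on medium lacking adenine and uracil.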
For LVYCFAYRVVHSNCHLESC, the amyloid nucleation score result is “inactive”.

With LVYLQDLQLSSMLDFHSCM, the amyloid nucleation score result was “inactive”.

The substance LWAIMFRYSDIAKLTGWRVV had an amyloid nucleation score of -0.069 ± 0.82.

For the substance LWDRHNCWGDEASFPSRPTY, the amyloid nucleation score result is “inactive”.

Turning to LWDWVYFAYDRVYLVLCSSC, the amyloid nucleation score result was “inactive”.

Take LWFCLFPPWITSCPFRLCRA: the amyloid nucleation score result was “inactive”.

LWGAYLLNCGNMRYCMYISG registered an amyloid nucleation score of 0.803 ± 0.2.

Consider LWIPLWNVRKVYIIGQCLT, for which the amyloid nucleation score result was “inactive”.

Consider LWKLSSNSYWFVSCNGLKYS, for which the amyloid nucleation score entry was “inactive”.

Consider LWKRCRNNEAFVLMVGRRQA, for which the amyloid nucleation score entry is “inactive”.

In the case of LWLIPC, the amyloid nucleation score result is “inactive”.

In the case of LWQDMRLLSGLL, the amyloid nucleation score result was “inactive”.

As to LWSLHMESDWGVRIHSRSLI, the amyloid nucleation score result is “inactive”.

Take LWTVNRECM: the amyloid nucleation score result is “inactive”.

Take LWYVDTGAIILG: the amyloid nucleation score entry was “inactive”.

As for LYAWPHRTIVVVWLRILLFR, the amyloid nucleation score entry is “inactive”.

Turning to LYCECYSSLLCYGRLPAKTR, the amyloid nucleation score entry was “inactive”.

For the substance LYDDVSTVWNKKTEVGQLLN, the amyloid nucleation score result is “inactive”.

As to LYEDYISSSMSMLLRLLSSY, the amyloid nucleation score entry was “inactive”.

With LYFACPTLYLFRRRVNVTHP, the amyloid nucleation score entry was “inactive”.

Consider LYHRAIGRSRQRENPSQKGG, for which the amyloid nucleation score was -0.048 ± 0.39.

With LYICTIVYYGQSNRYMFAGQ, the amyloid nucleation score entry was “inactive”.

Regarding LYLFTPVWDFNCLPFGLAYK, the amyloid nucleation score entry is “inactive”.

For the substance LYLPGKIY, the amyloid nucleation score entry was “inactive”.

As for LYMGSRPFSVIVVRITVGSQ, the amyloid nucleation score entry is “inactive”.

Consider LYMVINYMKCVARHGTQNDR, for which the amyloid nucleation score result was “inactive”.

As for LYPFSGESQA, the amyloid nucleation score entry is “inactive”.

On to LYRRVHVMGPVSHLDKLERC, for which the amyloid nucleation score result is “inactive”.

As for LYRWHNLFGYTNVSSIQKYG, the amyloid nucleation score result was “inactive”.

As to LYSAAVVNGGLCDRL, the amyloid nucleation score result was “inactive”.

With LYSAGLNEFLL, the amyloid nucleation score entry is “inactive”.

As to LYSSNQLFDGGMSFWNDNII, the amyloid nucleation score entry is “inactive”.

Take LYSVSAAMDTIKPLFPRGNA: the amyloid nucleation score entry is “inactive”.

As to LYVFYCVTHLHSIGPGQCLR, the amyloid nucleation score entry is “inactive”.

In turn, LYVSCWFDLRPSTFYLGSEF returned an amyloid nucleation score of 2.48 ± 0.054.

For LYYRGLRQRLTPKLGRFRLC, the amyloid nucleation score entry was “inactive”.

For the substance MAFYQHDILTMFLYRFRDAR, the amyloid nucleation score entry is “inactive”.

Substance MAGCAMRVRSYMGMKSHSEC returned an amyloid nucleation score of -0.353 ± 0.74.

In turn, MALLPGVAGTSYK came in with an amyloid nucleation score of -0.435 ± 1.3.

As for MAPVGL, the amyloid nucleation score result is “inactive”.

With MASVSREAVQYNAWESMAIY, the amyloid nucleation score entry is “inactive”.

Turning to MCFNYCGVWASYLNRSVSFI, the amyloid nucleation score result was “inactive”.

In the case of MCLVFKTEIRGLKAFCMCSF, the amyloid nucleation score entry is “inactive”.

In the case of MCMSVCFSK, the amyloid nucleation score result was “inactive”.

With MCRSNFAWSPSHK, the amyloid nucleation score result was “inactive”.

For MCSGAAFMRRVC, the amyloid nucleation score result is “inactive”.

Consider MCVRPLPSRLGTVGLWN, for which the amyloid nucleation score entry was “inactive”.

Take MCWLVWLSPRSNDCVDHRFD: the amyloid nucleation score is -0.163 ± 0.46.

MCYFEYNDVNWRVLLLYLCK: the amyloid nucleation score result is “inactive”.

In the case of MDGGASSREVAWWSLSNRGA, the amyloid nucleation score entry is “inactive”.

As for MDLITFGKKMREAQARILLV, the amyloid nucleation score result is “inactive”.

As to MDRYNEPLSNWTKSSEIR, the amyloid nucleation score result is “inactive”.

In the case of MDSPTGLALDG, the amyloid nucleation score result is “inactive”.

Consider MEGDLSVADSYGDQ, for which the amyloid nucleation score result is “inactive”.

With MFAADDLIPTKIVGSCF, the amyloid nucleation score entry is “inactive”.

In the case of MFFVRNFCQYVSRRC, the amyloid nucleation score is 1.83 ± 0.088.

For the substance MFGVVTGLTLGSSTFHA, the amyloid nucleation score entry is “inactive”.

With MFIMVRRRLT, the amyloid nucleation score entry is “inactive”.

MFITRVLR: the amyloid nucleation score entry was “inactive”.

With MFMYCPCSLEDICLRFPTPV, the amyloid nucleation score result is “inactive”.

MFRLVSGTEGLRLREVWC showed an amyloid nucleation score of -0.469 ± 1.1.

For the substance MFRTRTNNHDSVGRYLVTMN, the amyloid nucleation score result is “inactive”.

Turning to MFTTSCWILKER, the amyloid nucleation score was 0.248 ± 0.23.

With MFVYR, the amyloid nucleation score result is “inactive”.

Take MFYMIFIVYQSWLKNASYLC: the amyloid nucleation score result is “inactive”.

MGAANSWETDKF: the amyloid nucleation score entry was “inactive”.

Consider MGADGSLRALKRARS, for which the amyloid nucleation score result is “inactive”.

With MGDSVFRCLCNTYALLFPPV, the amyloid nucleation score result was “inactive”.

Take MGFASSLSWSL: the amyloid nucleation score result is “inactive”.

Consider MGMVFHME, for which the amyloid nucleation score entry was “inactive”.

Turning to MGSYM, the amyloid nucleation score entry was “inactive”.

Consider MGVYAINVRYSAERVMLVAP, for which the amyloid nucleation score entry is “inactive”.

For the substance MGYLMRALGHCSY, the amyloid nucleation score entry is “inactive”.

With MHFRWQTFYSDN, the amyloid nucleation score result was “inactive”.

MHNHMYISKEMLYNERTLSI: the amyloid nucleation score entry is “inactive”.

MIACNSRRCI: the amyloid nucleation score result is “inactive”.

On to MICAGVMIGYALFYFQIWSC, for which the amyloid nucleation score entry is “inactive”.

MIFSRAISDGSFLTVFV gave an amyloid nucleation score of -0.32 ± 0.8.

MIGFYLILVGSHIRMYTGS: the amyloid nucleation score result was “inactive”.

As to MIIPFLLLTMLITKSWLLIW, the amyloid nucleation score entry was “inactive”.

On to MIIYVKLPYRCLFFERHSDT, for which the amyloid nucleation score entry was “inactive”.

With MIKPIIHFSGG, the amyloid nucleation score result is “inactive”.

As for MILCCNRRLFGRRSLANLCW, the amyloid nucleation score entry was “inactive”.

Turning to MILFKIEELHCQHVSHCG, the amyloid nucleation score result is “inactive”.

Turning to MILNWARQRGIECMAYSRVW, the amyloid nucleation score result was “inactive”.

For the substance MIMINVISQCKCAGWGGNRA, the amyloid nucleation score was determined as 3.36 ± 0.053.

Take MIMTMTAGFFLELLW: the amyloid nucleation score result was “inactive”.

For MIRLNNRARRNLLRLRVDRQ, the amyloid nucleation score entry is “inactive”.

Turning to MKRCTVFEPLPKRRLVMYLE, the amyloid nucleation score entry is “inactive”.

For the substance MKVNKLRTMPCNINWQFCLP, the amyloid nucleation score came to 0.819 ± 0.11.

For the substance MLCRPTGRGLDGQCERLTVR, the amyloid nucleation score result was “inactive”.

Turning to MLDSRYGKMCRGEW, the amyloid nucleation score entry is “inactive”.

Turning to MLKSTKKSRGLYMVSYTFTG, the amyloid nucleation score entry was “inactive”.

In the case of MLLSVRRGSLWESRPRTWLM, the amyloid nucleation score amounted to 0.535 ± 0.22.

MLLVHNRTDIFLWIDLYNSL: the amyloid nucleation score entry was “inactive”.

MLPFTLMQPNVLFWMIDWED: the amyloid nucleation score result is “inactive”.
